# Laboratory results taken from article doi:10.64898/2025.12.22.696113.
# Target: extracellular domain of Arabidopsis thaliana HAESA-LIKE 3 (HSL3, AT5G25930, residues 23–662) (Arabidopsis thaliana)
# Assay: SPR
Substance,Kd [µM],kon [M⁻¹ s⁻¹]
CTNIP4^51–70 (peptide),3.91,568
CTNIP4^54–70 (peptide),5.29,498
CTNIP4^48–70 (peptide),1.99,1140
